# Test system: MBP-GLD-1 (C. elegans)
# Experiment: EMSA
# Conditions: EMSA: 20 mM HEPES pH 7.4, 330 mM KCl, 10 mM MgCl2, 0.1 mM EDTA, 0.1 mg/ml heparin, 0.01% IGEPAL CA630, room temperature, 1 h; SELEX: 50 mM Tris-HCl pH 8.0 …
row,Substance,Kd
1,TGE-wt,104 nM

# Target: T1, His-SLM-2 (UniProt Q9R226)
# T1 sequence: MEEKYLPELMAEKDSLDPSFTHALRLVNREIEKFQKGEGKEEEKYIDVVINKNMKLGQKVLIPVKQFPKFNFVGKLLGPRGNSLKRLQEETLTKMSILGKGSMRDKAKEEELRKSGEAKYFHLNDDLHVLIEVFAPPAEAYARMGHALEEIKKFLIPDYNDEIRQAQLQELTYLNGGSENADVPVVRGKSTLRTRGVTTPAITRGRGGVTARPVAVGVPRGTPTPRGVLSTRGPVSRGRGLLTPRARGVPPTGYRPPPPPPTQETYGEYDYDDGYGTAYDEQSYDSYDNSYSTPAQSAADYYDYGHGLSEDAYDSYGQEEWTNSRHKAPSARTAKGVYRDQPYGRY
# Experiment: EMSA
# Conditions: EMSA: 20 mM HEPES pH 7.4, 330 mM KCl, 10 mM MgCl2, 0.1 mM EDTA, 0.1 mg/ml heparin, 0.01% IGEPAL CA630, room temperature, 1 h; SELEX: 50 mM Tris-HCl pH 8.0 …
row,Substance,Kd
1,AUCGUAAUAAACAAUUAAUUUGGAUUUCUUGAGCUUAUGGCUUUUAAUAUGGG [SRE-7m2],14.5 nM
2,AUCGUGGUGGGCGGUUAAUUUGGAUUU [SRE-7d1],> 1000 nM
3,AUCGUGGUGGGCGGUUAAUUUGGAUUUCUUGAGCUUAUGGCUCGACGCAUGGG [SRE-7m3],> 1000 nM
4,AUCGUGGUGGGCGGUUAAUUUGGAUUUCUUGAGCUUAUGGCUUUUAAUAUGGG [SRE-7wt],30.3 nM
5,AUCUUGUUCUCCGCUUAAUUUGGAUUUCUUGAGCUUAUGGCUUUUAAUAUGGG [SRE-7m1],45.2 nM
6,GGAUUUCUUGAGCUUAUGGCUUUUAAU [SRE-7d6],> 1000 nM
7,GGUUAAUCUGGAUUUCUUGAGCUUAUGGCUUUUCCUAUGG [SRE-7d9m3],400 nM
8,GGUUAAUUUGGAUUUCUUGAGCUUAUG [SRE-7d3],> 1000 nM
9,GGUUAAUUUGGAUUUCUUGAGCUUAUGGCUUUU [SRE-7d8],> 1000 nM
10,GGUUAAUUUGGAUUUCUUGAGCUUAUGGCUUUUAAUAUGG [SRE-7d9],22.3 nM
11,GGUUCCCCUGGAUUUCUUGAGCUUAUGGCUUUCCCCAUGG [SRE-7d9m1],> 1000 nM
12,GGUUCCUUUGGAUUUCUUGAGCUUAUGGCUUUUAAUAUGG [SRE-7d9m2],400 nM
13,GGUUCUACCCCAAUUUUCACUAUCCUACCCCCAGUUCC [SRE-4m1],> 1000 nM
14,GGUUCUACCCCAAUUUUCACUAUCCUAUUAACAGUUCC [SRE-4m2],> 1000 nM
15,GGUUCUAUAAAAAUUUUCACUAUCCUACCCCCAGUUCC [SRE-4m3],> 1000 nM
16,GGUUCUAUAAAAAUUUUCACUAUCCUAUUAACAGUUCC [SRE-4wt],16.3 nM
17,GGUUCUAUACCCCCUUUCACUAUCCUAUUAACAGUUCC [SRE-4m4],> 1000 nM
18,GUGGGCGGUUAAUUUGGAUUUCUUGAG [SRE-7d2],> 1000 nM
19,UAAUUUGGAUUUCUUGAGCUUAUGGCU [SRE-7d7],> 1000 nM
20,UUUCUUGAGCUUAUGGCUUUUAAUAUGG [SRE-7d5],> 1000 nM
21,UUUGGAUUUCUUGAGCUUAUGGCUUUU [SRE-7d4],> 1000 nM

# Test system: GST-QKI-5
# Experiment: EMSA
# Conditions: EMSA: 20 mM HEPES pH 7.4, 330 mM KCl, 10 mM MgCl2, 0.1 mM EDTA, 0.1 mg/ml heparin, 0.01% IGEPAL CA630, room temperature, 1 h; SELEX: 50 mM Tris-HCl pH 8.0 …
row,Substance,Kd
1,QRE-2:wt,121 nM
2,TGE-wt,300 nM
